Data taken from patent US20110294730A1, “METHOD OF TREATING GLAUCOMA AND INTRAOCULAR HYPERTENSION” (priority 2010, published 2011).

Test system: not listed separately
Experiment: Curcumin eye drops, retinal damage due to glaucoma
Assay type: in vivo
Conditions: curcumin 1 to 5 percent in normal saline
From the text: We have used curcumin diluted in the normal saline from 1 to 5 percent after extracting it from turmeric using solvents such as DMSO and alcohol as well other known solvents. […] The sclera can be stained yellow that can be mistaken for jaundice. All the above antioxidants can be used with insulin as described above and there is no systemic reaction.
With COc1cc(/C=C/C(=O)CC(=O)/C=C/c2ccc(O)c(OC)c2)ccc1O [curcumin] the “improving the retinal damage” value was “very effective”.

Test system: not given
Experiment: not given
Conditions: patients treated with latanoprost; cited from earlier work
In the case of CC(C)OC(=O)CCC/C=C\C[C@@H]1[C@@H](CC[C@@H](O)CCc2ccccc2)[C@H](O)C[C@@H]1O [latanoprost], the “increased iris pigmentation, share of patients” value is given as at most 17%.

Test system: not given
Experiment: not given
Conditions: […] eye drops; cited from earlier work
For CNC(=O)Oc1ccc2c(c1)[C@]1(C)CCN(C)[C@@H]1N2C [physostigmine sulphate], the miosis is listed as “sustained miosis”.

Test system: trabecular meshwork
Experiment: not given
Conditions: cited from earlier work
In the case of TGF-a: exogenous growth factor, the extracellular acidification is given as “significantly stimulated”. For HGF: exogenous growth factor, the extracellular acidification is given as “significantly stimulated”. For TNF-a, the extracellular acidification is listed as “significantly stimulated”. For EGF: exogenous growth factor, the extracellular acidification is given as “significantly stimulated”. For 11-Ib: exogenous growth factor, the extracellular acidification is listed as “significantly stimulated”. In the case of IGF-1: insulin like growth factor, the extracellular acidification is listed as “significantly stimulated”. For FGF-1: exogenous growth factor, the extracellular acidification is given as “significantly stimulated”.

Test system: not given
Experiment: not given
Conditions: in vivo; cited from earlier work
In the case of “NPH (isophane): intermediate-acting NPH (isophane) insulin”, the “Effective duration of action” value is listed as 10 to 16 h, the Maximum duration is listed as 14 to 18 h and the “Onset of Action” value is listed as 2 to 4 h. The Peak action was 6 to 10 h. In the case of “Insulin aspart [Insulin aspart (NovoLog)]”, the “Effective duration of action” value is given as 3 to 4 h, the Maximum duration is given as 4 to 6 h and the “Onset of Action” value is given as “¼-½”. The Peak action was “½-1¼”. For “Insulin lispro [Insulin lispro (Humalog)]”, the “Effective duration of action” value is given as 3 to 4 h, the Maximum duration is given as 4 to 6 h and the “Onset of Action” value is given as “¼-½”. The Peak action was “½-1¼”. In the case of “Insulin glulisine [Insulin glulisine (Apidra)]”, the “Effective duration of action” value is listed as 3 to 4 h, the Maximum duration is listed as 4 to 6 h and the “Onset of Action” value is listed as “¼-½”. The Peak action was “½-1¼”. For “Insulin detemir [Insulin detemir (Levemir)]”, the “Effective duration of action” value is given as 14 h, the Maximum duration is given as about 20 h and the “Onset of Action” value is given as 3 to 4 h. For the same compound, the Peak action was 6 to 8 h. For “Insulin glargine [Insulin glargine (Lantus)]”, the “Effective duration of action” value is given as 18 to 20 h, the Maximum duration is given as 20 to 24 h and the “Onset of Action” value is given as 3 to 4 h. The Peak action was 8 to 16 h. In the case of “Regular (soluble): short-acting regular (soluble) insulin”, the “Effective duration of action” value is listed as 3 to 6 h, the Maximum duration is listed as 6 to 8 h and the Peak action is listed as 2 to 3 h.
